Values quoted from earlier work, collected in paper PMC5167704.

Biological target: C4BP SCR6-8 (Homo sapiens) (UniProt P04003)
Chain of UniProt P04003 (P04003 363-540): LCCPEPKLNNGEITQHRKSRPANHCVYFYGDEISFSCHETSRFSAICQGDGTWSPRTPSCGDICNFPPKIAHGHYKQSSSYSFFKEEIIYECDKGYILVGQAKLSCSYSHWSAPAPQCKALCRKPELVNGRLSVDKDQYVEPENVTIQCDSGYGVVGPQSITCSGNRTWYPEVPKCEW

## Ail (from UniProt Q56957)
  Kd: 0.76 nM
